pKd: −log10 of the molar value.
Legend:
[1] = target: FAPα on FAPα+ fibroblasts (human) (UniProt Q12884); test: flow cytometry on BJ fibroblasts, anti-human Fc secondary antibody, % IgG bound cells
[2] = target: Recombinant human FAPα (human) (UniProt Q12884); test: SPR (Reichert 4SPR), antibody on Protein A chip, antigen flown over
[3] = target: OX40 on activated CD4 T-cells; test: flow cytometry on anti-CD3/anti-CD28-activated CD4 T-cells, anti-human IgG secondary antibody, % cells bound IgG
[4] = target: Recombinant human OX40 (human) (UniProt P43489); test: SPR (Reichert 4SPR), antibody on Protein A chip, antigen flown over
Recombinant human OX40 (human), sequence (P43489 29-216 limits assumed): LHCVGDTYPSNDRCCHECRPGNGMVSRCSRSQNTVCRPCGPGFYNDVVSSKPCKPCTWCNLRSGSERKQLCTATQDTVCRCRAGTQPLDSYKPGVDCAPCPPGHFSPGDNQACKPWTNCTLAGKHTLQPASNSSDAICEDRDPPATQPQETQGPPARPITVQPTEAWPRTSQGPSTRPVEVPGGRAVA

[5] = target: PD-1 on activated CD4 and CD8 T-cells; test: flow cytometry on anti-CD3/anti-CD28-activated CD8 T-cells, anti-human IgG secondary antibody, % cells bound IgG
PD-1 on activated CD4 and CD8 T-cells, sequence (chain, as listed by the source limits assumed): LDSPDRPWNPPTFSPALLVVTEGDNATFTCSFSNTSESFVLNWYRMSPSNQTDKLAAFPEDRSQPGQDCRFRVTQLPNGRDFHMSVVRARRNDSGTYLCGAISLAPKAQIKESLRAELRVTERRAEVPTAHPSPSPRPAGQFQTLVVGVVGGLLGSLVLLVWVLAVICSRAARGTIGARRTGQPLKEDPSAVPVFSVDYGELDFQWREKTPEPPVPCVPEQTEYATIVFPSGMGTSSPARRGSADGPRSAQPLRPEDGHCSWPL

[6] = target: PD-1 on activated CD4 and CD8 T-cells; test: flow cytometry on anti-CD3/anti-CD28-activated CD4 T-cells, anti-human IgG secondary antibody, % cells bound IgG
[7] = target: TIGIT on activated CD8 T-cells (human) (UniProt Q495A1); test: flow cytometry, anti-human IgG secondary antibody, activated CD8 T-cells
TIGIT on activated CD8 T-cells (human), sequence (Q495A1 22-244 limits assumed): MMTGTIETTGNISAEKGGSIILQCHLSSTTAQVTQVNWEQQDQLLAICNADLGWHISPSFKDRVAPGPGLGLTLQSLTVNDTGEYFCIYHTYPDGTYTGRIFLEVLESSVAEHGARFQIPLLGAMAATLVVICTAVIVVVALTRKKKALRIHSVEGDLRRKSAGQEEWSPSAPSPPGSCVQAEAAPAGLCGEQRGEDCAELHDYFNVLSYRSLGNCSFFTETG

[8] = target: TIGIT on Vδ1 γδ T-cells (human) (UniProt Q495A1); test: flow cytometry, anti-human IgG secondary antibody, Vδ1 γδ T-cells
TIGIT on Vδ1 γδ T-cells (human), sequence (Q495A1 22-244, stated change not applied): as the sequence (Q495A1 22-244 limits assumed) above

[9] = target: Recombinant human TIGIT (human) (UniProt Q495A1); test: SPR (Reichert 4SPR), antibody on Protein A chip, antigen flown over
Recombinant human TIGIT (human), sequence (Q495A1 22-141 limits assumed): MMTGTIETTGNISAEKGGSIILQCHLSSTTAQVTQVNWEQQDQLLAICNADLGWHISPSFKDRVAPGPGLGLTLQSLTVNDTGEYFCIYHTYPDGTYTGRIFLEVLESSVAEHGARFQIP

OX40 on activated CD4 T-cells, sequence (chain, as listed by the source limits assumed): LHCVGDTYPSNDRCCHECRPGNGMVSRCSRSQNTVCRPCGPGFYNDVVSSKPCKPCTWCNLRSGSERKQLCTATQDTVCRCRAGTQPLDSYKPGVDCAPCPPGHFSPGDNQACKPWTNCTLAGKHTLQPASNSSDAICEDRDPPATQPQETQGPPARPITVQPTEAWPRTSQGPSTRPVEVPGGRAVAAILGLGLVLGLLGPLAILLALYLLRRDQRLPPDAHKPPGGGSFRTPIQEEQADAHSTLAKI

Anti-FAPα monoclonal antibody (based on sibrotuzumab)
EC50 (read off the curve) [1]: 0.08 nM | pKd [2]: 8.41

Anti-OX40 antibody (based on pogalizumab)
EC50 (read off the curve) [3]: 0.1 nM | pKd [4]: 9.09

Anti-PD-1 antibody (based on pembrolizumab)
EC50 (read off the curve) [5]: 0.1 nM | EC50 (read off the curve) [6]: 0.2 nM

Anti-TIGIT antibody (based on tiragolumab)
EC50 (read off the curve) [7]: 0.4 nM | EC50 (read off the curve) [8]: 8 nM | pKd [9]: 9.52

From patent publication US20230028110A1
